This is an account of results in patent publication WO2010066762A1.

The experiment concerns the target Recombinant Interleukin-1 beta (IL-1B) (human) (UniProt P01584). In words: cell-based or functional assay.
Sequence of UniProt P01584 (P01584 117-269 limits assumed): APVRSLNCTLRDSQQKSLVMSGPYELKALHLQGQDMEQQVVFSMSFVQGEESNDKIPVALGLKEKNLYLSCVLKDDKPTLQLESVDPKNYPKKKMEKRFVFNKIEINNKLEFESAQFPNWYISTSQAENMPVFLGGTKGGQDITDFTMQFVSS

With ACZ885 antibody, the Bioassay [%] (relative potency vs ACZ885 reference standard); reconstituted lyophilisate F1, stored at 5°C is 103%; the Bioassay [%] (relative potency vs ACZ885 reference standard); reconstituted lyophilisate F1, stored at 25°C came to 99%; the Bioassay [%] (relative potency vs ACZ885 reference standard); reconstituted lyophilisate F1, stored at 40°C was determined as 93%; the Bioassay [%] (relative potency vs ACZ885 reference standard); reconstituted lyophilisate F3, stored at 5°C came to 101%. For the same substance, the Bioassay [%] (relative potency vs ACZ885 reference standard); reconstituted lyophilisate F3, stored at 25°C came to 91%; the Bioassay [%] (relative potency vs ACZ885 reference standard); reconstituted lyophilisate F3, stored at 40°C was determined as 95%; the Reporter Gene Assay [%] (relative potency vs ACZ885 reference standard); liquid formulation 150 mg/mL, start is 121%; the Reporter Gene Assay [%] (relative potency vs ACZ885 reference standard); liquid formulation, 5°C, 4 months was 97%. Besides, the Reporter Gene Assay [%] (relative potency vs ACZ885 reference standard); liquid formulation, 5°C, 10 months was 99%; the Reporter Gene Assay [%] (relative potency vs ACZ885 reference standard); liquid formulation, 5°C, 16.5 months came to 110%; the Reporter Gene Assay [%] (relative potency vs ACZ885 reference standard); liquid formulation, 5°C, 24 months (n=4) is 99%; the Reporter Gene Assay [%] (relative potency vs ACZ885 reference standard); liquid formulation, 25°C, 4 months came to 100%. The Reporter Gene Assay [%] (relative potency vs ACZ885 reference standard); liquid formulation, 25°C, 10 months came to 85%; the Reporter Gene Assay [%] (relative potency vs ACZ885 reference standard); liquid formulation, 25°C, 16.5 months was found to be 74%; the Reporter Gene Assay [%] (relative potency vs ACZ885 reference standard); liquid formulation, 25°C, 24 months (n=4) was 70%; the Reporter Gene Assay [%] (relative potency vs ACZ885 reference standard); liquid formulation, 40°C, 2 months came to 78%. The Reporter Gene Assay [%] (relative potency vs ACZ885 reference standard); liquid formulation, 40°C, 4 months was 53%.
